Experimental data taken from patent publication US20080045445A1.

Molecular target: centromere-binding factor 1 (CBF1) (human) (UniProt Q06330)
Test: cell-based or functional assay

Sequence of centromere-binding factor 1 (CBF1) (human) (Q06330 whole entry): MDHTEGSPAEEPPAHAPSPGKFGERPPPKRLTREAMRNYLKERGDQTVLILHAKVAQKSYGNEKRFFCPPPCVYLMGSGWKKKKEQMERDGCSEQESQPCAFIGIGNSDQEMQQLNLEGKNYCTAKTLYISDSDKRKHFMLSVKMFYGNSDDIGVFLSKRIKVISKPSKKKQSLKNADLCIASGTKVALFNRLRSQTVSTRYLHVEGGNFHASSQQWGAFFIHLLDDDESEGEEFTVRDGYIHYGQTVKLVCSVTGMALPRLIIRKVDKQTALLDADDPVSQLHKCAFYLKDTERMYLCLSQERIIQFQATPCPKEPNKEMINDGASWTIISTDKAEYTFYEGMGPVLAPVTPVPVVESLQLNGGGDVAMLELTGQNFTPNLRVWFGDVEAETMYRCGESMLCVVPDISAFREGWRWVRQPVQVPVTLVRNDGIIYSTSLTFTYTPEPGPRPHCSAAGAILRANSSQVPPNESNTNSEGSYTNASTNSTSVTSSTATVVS

“Notch1 intracellular domain (NICD) (from UniProt P46531 1754-2555) (receptor)” showed a luciferase activity (CBF1 binding site reporter, wild-type/mutant, relative to beta-galactosidase) of 5 fold.
